Key:
[1] = Lysozyme secondary structure by circular dichroism after encapsulation and storage; assay type: physicochemical
Procedure: The secondary structure of the model drug lysozyme was examined by spectropolarimetry (JASCO, J-810, Tokyo, Japan) after encapsulation and release from dissolving microneedles produced in accordance with Example 3. CMC pyramidal microneedle devices weighing 5 mg that encapsulated lysozyme at a mass fraction of 5 wt % were completely dissolved in […] PBS at room temperature for 10 min and filtered by centrifugal filtration (Centricon YM-50, Millipore, Bedford, Mass., USA) at 1000×g and room temperature for 10 min to isolate lysozyme (14.3 kDa) from the dissolved CMC matrix material (90 kDa average molecular mass). After determining lysozyme concentration, PBS was added to dilute the lysozyme to 20 μg/ml. CD spectra were taken for (1) untreated lysozyme, (2) lysozyme encapsulated in microneedles that were dissolved 1 h after fabrication, (3) lysozyme encapsulated in microneedles that were dissolved after 60 days of storage at ambient conditions (23±2° C. and 38±5% relative humidity), and (4) lysozyme thermally treated at 80° C. for 30 min to cause irreversible denaturation.

[2] = Lysozyme enzymatic activity (EnzCheck lysozyme assay kit) after encapsulation and storage; assay type: biochemical
Procedure: Enzymatic activity of lysozyme encapsulated within CMC microneedle devices was tested with EnzCheck lysozyme assay kit (Molecular Probes). Microneedle devices weighing 5 mg that contained lysozyme encapsulated at a concentration of 5 wt % were completely dissolved in PBS at room temperature for 10 min. PBS was added to dilute each sample to 0.05 μg/ml lysozyme and 0.95 μg/ml CMC. Lysozyme activity was assayed using 1 ml solution samples for: (1) untreated lysozyme, (2) untreated lysozyme (0.05 μg) and CMC hydrogel (0.95 μg) mixed, and dissolved together, (3) lysozyme encapsulated in microneedles that were dissolved 1 h after fabrication, and (4) lysozyme encapsulated in microneedles that were dissolved after 60 days of storage at ambient conditions.

[3] = In vivo delivery of human growth hormone in hairless rats; conditions: subcutaneous injection of 196 μg
Procedure: Microneedle devices were prepared as described in Example 3. The microneedles and base substrate were both made of CMC and, in some cases, 50% trehalose was included in the formulation too. Human growth hormone (Pfizer) was added to the microneedles at a content of 191-249 μg per 100-needle array. The ratio of growth hormone to matrix material (i.e., CMC or CMC plus trehalose) was 1 to 9. Microneedles were inserted into the skin of hairless rats (Charles River Laboratories). The microneedles inserted easily by hand and were left in place for 24 hours. Minimal skin irritation was seen after microneedle use. A positive control group was included, in which rats received subcutaneous injection of 196 μg of human growth hormone. Blood was drawn periodically and assayed using an ELISA kit specific for human growth hormone without cross-reactivity with rat growth hormone (Diagnostic Systems Laboratories, Webster, Tex.).

Row | Substance | protein structure (CD) ([1]; after storage of microneedle patches for 2 months at room temperature) | change in protein secondary structure (CD) ([1]; encapsulated in microneedle patch, then released by dissolution, versus untreated lysozyme) | secondary structure (CD), positive control ([1]; thermally treated at 80° C. for 30 min) | loss of enzymatic activity compared to untreated enzyme ([2]; encapsulated in microneedles, dissolved in PBS) | retained enzymatic activity ([2]; released from microneedles after two months of storage) | change in lysozyme activity ([2]; untreated lysozyme mixed with dissolved CMC microneedle containing no lysozyme) | time of serum concentration peak [3]
1 | lysozyme: model drug (14.3 kDa) encapsulated at 5 wt % in CMC microneedle devices | unchanged | no detectable change | extensive degradation of secondary structure | no loss of enzymatic activity | 96% | no change in lysozyme activity | –
2 | growth hormone: Human growth hormone (Pfizer) | – | – | – | – | – | – | within about one hour
